Measured values from paper PMC11190991, “Encapsulation of Transketolase into In Vitro-Assembled Protein Nanocompartments Improves Thermal Stability” (ACS Applied Bio Materials, 2024).
One block for each molecule: values may come before it.

Key:
[1] = molecular target: Thermotoga maritima encapsulin (T = 1 capsid shell) (Thermotoga maritima) (UniProt Q9WZP2); assay: co-purification after co-expression + SDS-PAGE densitometry; in vivo loading: sfGFP-CLP co-expressed with Strep-tagged encapsulin in E. coli, capsids purified (SEC purified samples), cargo quantified by SDS-PAGE densitometry; single experiment
[2] = molecular target: Thermotoga maritima encapsulin (T = 1 capsid shell) (Thermotoga maritima) (UniProt Q9WZP2); assay: SEC; in vitro loading during reassembly (10 μM encapsulin monomer, cargo at stated molar ratio), SEC on Superose 6 to remove non-encapsulated cargo, co-eluted cargo seen by SDS-PAGE and quantified by densitometry against standard curves
[3] = molecular target: E. coli transketolase with C-terminal T. maritima cargo loading peptide (E. coli | T. maritima)
[4] = molecular target: Myxococcus xanthus encapsulin (T = 1 and T = 3 capsid shells) (Myxococcus xanthus) (UniProt Q1D6H4); assay: co-purification after co-expression + SDS-PAGE densitometry; in vivo loading: sfGFP-CLP co-expressed with Strep-tagged encapsulin in E. coli, capsids purified (SEC purified samples), cargo quantified by SDS-PAGE densitometry; single experiment
[5] = molecular target: Myxococcus xanthus encapsulin (T = 1 and T = 3 capsid shells) (Myxococcus xanthus) (UniProt Q1D6H4); assay: SEC; in vitro loading during reassembly (10 μM encapsulin monomer, cargo at stated molar ratio), SEC on Superose 6 to remove non-encapsulated cargo, co-eluted cargo seen by SDS-PAGE and quantified by densitometry against standard curves
[6] = molecular target: the molecule itself; assay: native gel or EMSA; BN-PAGE of samples disassembled in denaturant: 6 M GuHCl, 8 M urea (20 mM Tris-Cl pH 7.5), 0.15 M HCl pH 1.0 or 0.15 M NaOH pH 13.0
Q9WZP2 = assay: SEC; Superose 6 10/300 GL, 20 mM Tris-Cl, 50 mM NaCl, pH 7.5; A280 peak area of higher-order structures after reassembly against before disassembly; Tm_encap from 0.15 M NaOH, Mx_encap from 8 M urea

stoichiometry N (molecules per capsid) [1]: 2.94
stoichiometry N (copies per capsid) [2]: 15
Molecule: superfolder GFP with C-terminal T. maritima cargo loading peptide

stoichiometry N (dimers per capsid) [2]: 2.6
end-point transketolase activity (erythrulose from HPA and GA) of TK-TmCLP encapsulated in Tm encap, against free TK (100%) [3]: 50 % drop
Molecule: E. coli transketolase with C-terminal T. maritima cargo loading peptide (enzyme)

stoichiometry N (copies per capsid) [4]: 31
stoichiometry N (copies per capsid) [5]: 20
Molecule: superfolder GFP with C-terminal M. xanthus cargo loading peptide

B1: Thermotoga maritima encapsulin (T = 1 capsid shell) (natural protein, UniProt Q9WZP2 1-265, looked up)
chain: MEFLKRSFAPLTEKQWQEIDNRAREIFKTQLYGRKFVDVEGPYGWEYAAHPLGEVEVLSDENEVVKWGLRKSLPLIELRATFTLDLWELDNLERGKPNVDLSSLEETVRKVAEFEDEVIFRGCEKSGVKGLLSFEERKIECGSTPKDLLEAIVRALSIFSKDGIEGPYTLVINTDRWINFLKEEAGHYPLEKRVEECLRGGKIITTPRIEDALVVSERGGDFKLILGQDLSIGYEDREKDAVRLFITETFTFQVVNPEALILLKF
notes: T = 1 capsid, 1.97 MDa; also called T. maritima encapsulin; source: E. coli BL21 Star (DE3), purified (Strep-TactinXT); disassembled and reassembled in vitro; also co-expressed with sfGFP-TmCLP for in vivo loading; not shown: Strep-Tag II (after a GSG linker), C-terminal, kept; copies: 60
stoichiometry N [6]: 2
recovery of higher-order structures after reassembly (SEC peak area, 8-14 mL) (Q9WZP2): we determined the recovery to be 82%
